Data from IntAct's records for PubMed 19411703.

B1: Phospholipid-transporting ATPase DRS2 (Saccharomyces cerevisiae), P39524 (parent)
chain: MNDDRETPPKRKPGEDDTLFDIDFLDDTTSHSGSRSKVTNSHANANYIPPSHVLPEETIDLDADDDNIENDVHENLFMSNNHDDQTSWNANRFDSDAYQPQSLRAVKPPGLFARFGNGLKNAFTFKRKKGPESFEMNHYNAVTNNELDDNYLDSRNKFNIKILFNRYILRKNVGDAEGNGEPRVIHINDSLANSSFGYSDNHISTTKYNFATFLPKFLFQEFSKYANLFFLCTSAIQQVPHVSPTNRYTTIGTLLVVLIVSAMKECIEDIKRANSDKELNNSTAEIFSEAHDDFVEKRWIDIRVGDIIRVKSEEPIPADTIILSSSEPEGLCYIETANLDGETNLKIKQSRVETAKFIDVKTLKNMNGKVVSEQPNSSLYTYEGTMTLNDRQIPLSPDQMILRGATLRNTAWIFGLVIFTGHETKLLRNATATPIKRTAVEKIINRQIIALFTVLIVLILISSIGNVIMSTADAKHLSYLYLEGTNKAGLFFKDFLTFWILFSNLVPISLFVTVELIKYYQAFMIGSDLDLYYEKTDTPTVVRTSSLVEELGQIEYIFSDKTGTLTRNIMEFKSCSIAGHCYIDKIPEDKTATVEDGIEVGYRKFDDLKKKLNDPSDEDSPIINDFLTLLATCHTVIPEFQSDGSIKYQAASPDEGALVQGGADLGYKFIIRKPNSVTVLLEETGEEKEYQLLNICEFNSTRKRMSAIFRFPDGSIKLFCKGADTVILERLDDEANQYVEATMRHLEDYASEGLRTLCLAMRDISEGEYEEWNSIYNEAATTLDNRAEKLDEAANLIEKNLILIGATAIEDKLQDGVPETIHTLQEAGIKIWVLTGDRQETAINIGMSCRLLSEDMNLLIINEETRDDTERNLLEKINALNEHQLSTHDMNTLALVIDGKSLGFALEPELEDYLLTVAKLCKAVICCRVSPLQKALVVKMVKRKSSSLLLAIGDGANDVSMIQAAHVGVGISGMEGMQAARSADIAVGQFKFLKKLLLVHGSWSYQRISVAILYSFYKNTALYMTQFWYVFANAFSGQSIMESWTMSFYNLFFTVWPPFVIGVFDQFVSSRLLERYPQLYKLGQKGQFFSVYIFWGWIINGFFHSAIVFIGTILIYRYGFALNMHGELADHWSWGVTVYTTSVIIVLGKAALVTNQWTKFTLIAIPGSLLFWLIFFPIYASIFPHANISREYYGVVKHTYGSGVFWLTLIVLPIFALVRDFLWKYYKRMYEPETYHVIQEMQKYNISDSRPHVQQFQNAIRKVRQVQRMKKQRGFAFSQAEEGGQEKIVRMYDTTQKRGKYGELQDASANPFNDNNGLGSNDFESAEPFIENPFADGNQNSNRFSSSRDDISFDI
partner: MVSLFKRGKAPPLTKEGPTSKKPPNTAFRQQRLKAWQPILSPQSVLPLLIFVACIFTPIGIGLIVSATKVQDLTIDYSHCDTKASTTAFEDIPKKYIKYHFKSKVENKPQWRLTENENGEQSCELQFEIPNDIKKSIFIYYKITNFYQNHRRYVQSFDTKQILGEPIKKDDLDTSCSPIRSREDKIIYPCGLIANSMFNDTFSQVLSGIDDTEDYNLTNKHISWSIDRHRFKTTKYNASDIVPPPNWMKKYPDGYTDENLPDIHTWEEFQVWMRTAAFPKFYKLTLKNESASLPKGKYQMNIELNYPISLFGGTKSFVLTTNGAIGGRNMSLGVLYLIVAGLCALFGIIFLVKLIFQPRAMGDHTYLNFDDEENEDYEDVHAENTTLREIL
B2: Phospholipid-transporting ATPase DNF1 (Saccharomyces cerevisiae), P32660 (parent)
chain: MSGTFHGDGHAPMSPFEDTFQFEDNSSNEDTHIAPTHFDDGATSNKYSRPQVSFNDETPKNKREDAEEFTFNDDTEYDNHSFQPTPKLNNGSGTFDDVELDNDSGEPHTNYDGMKRFRMGTKRNKKGNPIMGRSKTLKWARKNIPNPFEDFTKDDIDPGAINRAQELRTVYYNMPLPKDMIDEEGNPIMQYPRNKIRTTKYTPLTFLPKNILFQFHNFANVYFLVLIILGAFQIFGVTNPGLSAVPLVVIVIITAIKDAIEDSRRTVLDLEVNNTKTHILEGVENENVSTDNISLWRRFKKANSRLLFKFIQYCKEHLTEEGKKKRMQRKRHELRVQKTVGTSGPRSSLDSIDSYRVSADYGRPSLDYDNLEQGAGEANIVDRSLPPRTDCKFAKNYWKGVKVGDIVRIHNNDEIPADIILLSTSDTDGACYVETKNLDGETNLKVRQSLKCTNTIRTSKDIARTKFWIESEGPHSNLYTYQGNMKWRNLADGEIRNEPITINNVLLRGCTLRNTKWAMGVVMFTGGDTKIMLNSGITPTKKSRISRELNFSVVINFVLLFILCFVSGIANGVYYDKKGRSRFSYEFGTIAGSAATNGFVSFWVAVILYQSLVPISLYISVEIIKTAQAAFIYGDVLLYNAKLDYPCTPKSWNISDDLGQVEYIFSDKTGTLTQNVMEFKKCTINGVSYGRAYTEALAGLRKRQGIDVETEGRREKAEIAKDRDTMIDELRALSGNSQFYPEEVTFVSKEFVRDLKGASGEVQQRCCEHFMLALALCHSVLVEANPDNPKKLDLKAQSPDEAALVATARDVGFSFVGKTKKGLIIEMQGIQKEFEILNILEFNSSRKRMSCIVKIPGLNPGDEPRALLICKGADSIIYSRLSRQSGSNSEAILEKTALHLEQYATEGLRTLCIAQRELSWSEYEKWNEKYDIAAASLANREDELEVVADSIERELILLGGTAIEDRLQDGVPDCIELLAEAGIKLWVLTGDKVETAINIGFSCNLLNNEMELLVIKTTGDDVKEFGSEPSEIVDALLSKYLKEYFNLTGSEEEIFEAKKDHEFPKGNYAIVIDGDALKLALYGEDIRRKFLLLCKNCRAVLCCRVSPSQKAAVVKLVKDSLDVMTLAIGDGSNDVAMIQSADVGIGIAGEEGRQAVMCSDYAIGQFRYLARLVLVHGRWSYKRLAEMIPEFFYKNMIFALALFWYGIYNDFDGSYLYEYTYMMFYNLAFTSLPVIFLGILDQDVNDTISLVVPQLYRVGILRKEWNQRKFLWYMLDGLYQSIICFFFPYLVYHKNMIVTSNGLGLDHRYFVGVYVTTIAVISCNTYVLLHQYRWDWFSGLFIALSCLVVFAWTGIWSSAIASREFFKAAARIYGAPSFWAVFFVAVLFCLLPRFTYDSFQKFFYPTDVEIVREMWQHGHFDHYPPGYDPTDPNRPKVTKAGQHGEKIIEGIALSDNLGGSNYSRDSVVTEEIPMTFMHGEDGSPSGYQKQETWMTSPKETQDLLQSPQFQQAQTFGRGPSTNVRSSLDRTREQMIATNQLDNRYSVERARTSLDLPGVTNAASLIGTQQNN
partner: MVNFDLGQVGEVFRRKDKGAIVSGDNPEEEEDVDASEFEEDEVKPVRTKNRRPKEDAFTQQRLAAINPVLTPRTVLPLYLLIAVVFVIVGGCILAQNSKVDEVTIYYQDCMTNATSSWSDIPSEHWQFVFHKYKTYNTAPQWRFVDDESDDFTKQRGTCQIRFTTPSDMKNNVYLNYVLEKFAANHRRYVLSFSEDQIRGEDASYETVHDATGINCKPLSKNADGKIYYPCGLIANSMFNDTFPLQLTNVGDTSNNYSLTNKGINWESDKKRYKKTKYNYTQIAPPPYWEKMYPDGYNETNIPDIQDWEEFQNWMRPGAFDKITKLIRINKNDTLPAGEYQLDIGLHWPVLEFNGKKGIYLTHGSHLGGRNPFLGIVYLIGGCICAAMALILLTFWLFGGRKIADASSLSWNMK

Variants of: B1
Conditions: with cdc50_yeast CDC50, P25656

| effect of a mutation on the interaction | Variant |
| --- | --- |
| decreasing interaction strength | D560E |
| decreasing interaction strength | G341L |
| with no effect | E342Q |

Variants of: B1
Conditions: with cdc50_yeast CDC50, P25656
Remark: another data set of the same source

| effect of a mutation on the interaction | Variant |
| --- | --- |
| decreasing interaction strength | D560N |

Variants of: B2
Conditions: with lem3_yeast LEM3, P42838

| effect of a mutation on the interaction | Variant |
| --- | --- |
| disrupting interaction strength | D667E |
| disrupting interaction strength | D667N |
